For test [1], the target named is SARS-CoV-2 EG5.1 S ectodomain with 6P and furin mutations, trimer (SARS-CoV-2 Omicron EG.5.1, stabilised). As to the kind of experiment: cryo-EM structure.
In test [2] the target is SARS-CoV-2 Spike Wuhan-Hu-1 (SARS-CoV-2 Wuhan-Hu-1, UniProt P0DTC2). Put plainly: ELISA. (In general: ELISA stands for enzyme-linked immunosorbent assay.)

By stoichiometry N is commonly meant a count of units in the complex or per binding partner.

B1: 1301B7 Fab (Fab, V domains shown)
VH: EVQLVESGAEVKNPGSSVKVSCKASEGTFGSYPIIWVRQAPGQGLEWVGGIIPILGTVIYAQKFQGRVTITGDTYAGSAHMELSGLRSEDTAVFYCARGSYDYGDRLLNYTYYAMDVWGPGTTVTVSS
VL: QPGLTQPPSVSGAPGQRVTISCTGSRSNIGAVYAVHWYQHVPGAAPKLLIYENNNRPSGIPDRFSGSKSGTSASLVITGLQAEDEADYLCQSYDRSVGVVFGGGTRLTVL
Regarding B1, the “stoichiometry N” value in test [1] was 1 Fab per Spike trimer.

B2: 1301B7 recombinant human monoclonal antibody (hmAb), IgG1 (antibody, V domains shown)
VH: B1 VH
VL: B1 VL
On to B2, for which, in test [2], the binding result is “binds”.
